Test results as given in paper PMC4315173 (The Biochemical journal, 2014).

What was measured:
[1] = biological target: endogenous PDE4D (mouse brain) (mouse (endogenous in brain)) (UniProt Q01063); assay: co-IP
[2] = biological target: the molecule itself; assay: SEC + other: sucrose density gradient centrifugation

endogenous long PDE4A variants (mouse brain), sequence (O89084 whole entry, change not shown): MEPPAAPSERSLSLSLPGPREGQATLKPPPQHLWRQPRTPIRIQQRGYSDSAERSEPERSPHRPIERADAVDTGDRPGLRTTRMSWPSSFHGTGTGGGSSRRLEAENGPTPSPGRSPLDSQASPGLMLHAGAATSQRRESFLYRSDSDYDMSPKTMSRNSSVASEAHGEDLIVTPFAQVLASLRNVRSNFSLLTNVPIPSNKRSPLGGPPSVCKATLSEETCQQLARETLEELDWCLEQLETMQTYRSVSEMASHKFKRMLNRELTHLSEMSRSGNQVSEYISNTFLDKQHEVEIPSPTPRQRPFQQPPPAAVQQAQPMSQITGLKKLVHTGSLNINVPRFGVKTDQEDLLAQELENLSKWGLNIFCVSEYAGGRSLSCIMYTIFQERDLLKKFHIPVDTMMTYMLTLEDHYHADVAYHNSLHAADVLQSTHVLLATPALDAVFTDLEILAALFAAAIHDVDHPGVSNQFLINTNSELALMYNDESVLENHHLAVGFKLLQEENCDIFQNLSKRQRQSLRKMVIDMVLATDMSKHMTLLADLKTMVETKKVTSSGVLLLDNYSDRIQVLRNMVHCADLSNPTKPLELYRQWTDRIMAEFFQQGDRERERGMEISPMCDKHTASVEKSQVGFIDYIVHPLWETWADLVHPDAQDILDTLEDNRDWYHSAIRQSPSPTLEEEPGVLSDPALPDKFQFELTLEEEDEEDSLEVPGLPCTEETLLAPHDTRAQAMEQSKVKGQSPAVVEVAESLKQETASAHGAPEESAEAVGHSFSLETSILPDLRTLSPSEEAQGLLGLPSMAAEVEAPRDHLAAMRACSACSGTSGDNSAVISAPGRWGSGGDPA
endogenous PDE4D (mouse brain) (mouse (endogenous in brain)), sequence (Q01063 whole entry): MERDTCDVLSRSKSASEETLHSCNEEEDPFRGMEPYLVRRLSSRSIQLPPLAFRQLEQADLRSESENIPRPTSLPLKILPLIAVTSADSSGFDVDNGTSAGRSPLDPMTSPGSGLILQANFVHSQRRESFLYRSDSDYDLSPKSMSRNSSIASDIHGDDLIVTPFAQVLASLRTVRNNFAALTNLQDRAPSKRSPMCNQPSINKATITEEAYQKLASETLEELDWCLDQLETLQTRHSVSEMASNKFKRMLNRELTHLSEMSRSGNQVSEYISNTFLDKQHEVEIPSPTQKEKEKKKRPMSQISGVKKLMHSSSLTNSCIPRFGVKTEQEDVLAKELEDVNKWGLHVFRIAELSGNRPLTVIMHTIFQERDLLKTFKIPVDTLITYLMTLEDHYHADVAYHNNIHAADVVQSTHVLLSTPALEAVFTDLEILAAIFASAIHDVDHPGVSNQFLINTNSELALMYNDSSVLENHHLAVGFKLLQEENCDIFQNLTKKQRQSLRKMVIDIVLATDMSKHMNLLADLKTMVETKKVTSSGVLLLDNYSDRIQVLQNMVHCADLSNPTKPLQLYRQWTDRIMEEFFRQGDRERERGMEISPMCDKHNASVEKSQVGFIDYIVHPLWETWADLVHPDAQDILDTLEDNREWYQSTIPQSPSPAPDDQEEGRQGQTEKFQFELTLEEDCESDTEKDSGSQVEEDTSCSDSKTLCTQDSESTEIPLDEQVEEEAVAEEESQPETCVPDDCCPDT

| percent of the total PDE4A found in complex with PDE4D [1] [%] | Molecule | stoichiometry N [2] |
| --- | --- | --- |
| 2 | endogenous long PDE4A variants (mouse brain) (from UniProt O89084 1-844) (natural protein) | – |
| – | PDE4A4 (natural protein, human, UniProt P27815-1 1-886, looked up) MEPPTVPSERSLSLSLPGPREGQATLKPPPQHLWRQPRTPIRIQQRGYSDSAERAERERQPHRPIERADAMDTSDRPGLRTTRMSWPSSFHGTGTGSGGAGGGSSRRFEAENGPTPSPGRSPLDSQASPGLVLHAGAATSQRRESFLYRSDSDYDMSPKTMSRNSSVTSEAHAEDLIVTPFAQVLASLRSVRSNFSLLTNVPVPSNKRSPLGGPTPVCKATLSEETCQQLARETLEELDWCLEQLETMQTYRSVSEMASHKFKRMLNRELTHLSEMSRSGNQVSEYISTTFLDKQNEVEIPSPTMKEREKQQAPRPRPSQPPPPPVPHLQPMSQITGLKKLMHSNSLNNSNIPRFGVKTDQEELLAQELENLNKWGLNIFCVSDYAGGRSLTCIMYMIFQERDLLKKFRIPVDTMVTYMLTLEDHYHADVAYHNSLHAADVLQSTHVLLATPALDAVFTDLEILAALFAAAIHDVDHPGVSNQFLINTNSELALMYNDESVLENHHLAVGFKLLQEDNCDIFQNLSKRQRQSLRKMVIDMVLATDMSKHMTLLADLKTMVETKKVTSSGVLLLDNYSDRIQVLRNMVHCADLSNPTKPLELYRQWTDRIMAEFFQQGDRERERGMEISPMCDKHTASVEKSQVGFIDYIVHPLWETWADLVHPDAQEILDTLEDNRDWYYSAIRQSPSPPPEEESRGPGHPPLPDKFQFELTLEEEEEEEISMAQIPCTAQEALTAQGLSGVEEALDATIAWEASPAQESLEVMAQEASLEAELEAVYLTQQAQSTGSAPVAPDEFSSREEFVVAVSHSSPSALALQSPLLPAWRTLSVSEHAPGLPGLPSTAAEVEAQREHQAAKRACSACAGTFGEDTSALPAPGGGGSGGDPT | 2 |
| – | PDE4D3 (natural protein, UniProt P14270-1 1-672, looked up) MMHVNTFPFRRHSWICFDVDNGTSAGRSPLDPMTSPGSGLILQANFVHSQRRESFLYRSDSDYDLSPKSMSRNSSIASDIHGDDLIVTPFAQVLASLRTVRNNFAALTNLQDRAPSKRSPMCNQPSINKATITEEAYQKLASETLEELDWCLDQLETLQTRHSVSEMASNKFKRMLNRELTHLSEMSRSGNQVSEYISNTFLDKQHEVEIPSPTQKEKEKKKRPMSQISGVKKLMHSSSLTNSCIPRFGVKTEQEDVLAKELEDVNKWGLHVFRIAELSGNRPLTVIMHTIFQERDLLKTFKIPVDTLITYLMTLEDHYHADVAYHNNIHAADVVQSTHVLLSTPALEAVFTDLEILAAIFASAIHDVDHPGVSNQFLINTNSELALMYNDSSVLENHHLAVGFKLLQEENCDIFQNLTKKQRQSLRKMAIDIVLATDMSKHMNLLADLKTMVETKKVTSSGVLLLDNYSDRIQVLQNMVHCADLSNPTKPLQLYRQWTDRIMEEFFRQGDRERERGMEISPMCDKHNASVEKSQVGFIDYIVHPLWETWADLVHPDAQDILDTLEDNREWYQSTIPQSPSPAPDDQEDGRQGQTEKFQFELTLEEDGESDTEKDSGSQVEEDTSCSDSKTLCTQDSESTEIPLDEQVEEEAVAEEESQPQTGVADDCCPDT | 2 |
| – | PDE4D5 (natural protein, rat, UniProt P14270-8 1-745, looked up) MAQQTTSPDTLTVPEVDNPHVPNPWLNEDLVKSLRENLLQHEKSKTARKSVSPKLSPVISPRNSPRLLRRMLLSSNIPKQRRFTVAHTCFDVDNGTSAGRSPLDPMTSPGSGLILQANFVHSQRRESFLYRSDSDYDLSPKSMSRNSSIASDIHGDDLIVTPFAQVLASLRTVRNNFAALTNLQDRAPSKRSPMCNQPSINKATITEEAYQKLASETLEELDWCLDQLETLQTRHSVSEMASNKFKRMLNRELTHLSEMSRSGNQVSEYISNTFLDKQHEVEIPSPTQKEKEKKKRPMSQISGVKKLMHSSSLTNSCIPRFGVKTEQEDVLAKELEDVNKWGLHVFRIAELSGNRPLTVIMHTIFQERDLLKTFKIPVDTLITYLMTLEDHYHADVAYHNNIHAADVVQSTHVLLSTPALEAVFTDLEILAAIFASAIHDVDHPGVSNQFLINTNSELALMYNDSSVLENHHLAVGFKLLQEENCDIFQNLTKKQRQSLRKMAIDIVLATDMSKHMNLLADLKTMVETKKVTSSGVLLLDNYSDRIQVLQNMVHCADLSNPTKPLQLYRQWTDRIMEEFFRQGDRERERGMEISPMCDKHNASVEKSQVGFIDYIVHPLWETWADLVHPDAQDILDTLEDNREWYQSTIPQSPSPAPDDQEDGRQGQTEKFQFELTLEEDGESDTEKDSGSQVEEDTSCSDSKTLCTQDSESTEIPLDEQVEEEAVAEEESQPQTGVADDCCPDT | 2 |
| – | PDE4D4 (natural protein, rat, UniProt P14270-5 1-803, looked up) MEAEGSSVPARAGSHEGSDSSGGAALKAPKHLWRHEQHHQYPLRQPQFRLLHPHHHLPPPPPPSPQPQLQPPPPPPLPPPPPPPGATRGRYASSGASRVRHRGYSDTERYLYCRAMDRTSYAVETGHRPGLKKSRMSWPSSFQGLRRFDVDNGTSAGRSPLDPMTSPGSGLILQANFVHSQRRESFLYRSDSDYDLSPKSMSRNSSIASDIHGDDLIVTPFAQVLASLRTVRNNFAALTNLQDRAPSKRSPMCNQPSINKATITEEAYQKLASETLEELDWCLDQLETLQTRHSVSEMASNKFKRMLNRELTHLSEMSRSGNQVSEYISNTFLDKQHEVEIPSPTQKEKEKKKRPMSQISGVKKLMHSSSLTNSCIPRFGVKTEQEDVLAKELEDVNKWGLHVFRIAELSGNRPLTVIMHTIFQERDLLKTFKIPVDTLITYLMTLEDHYHADVAYHNNIHAADVVQSTHVLLSTPALEAVFTDLEILAAIFASAIHDVDHPGVSNQFLINTNSELALMYNDSSVLENHHLAVGFKLLQEENCDIFQNLTKKQRQSLRKMAIDIVLATDMSKHMNLLADLKTMVETKKVTSSGVLLLDNYSDRIQVLQNMVHCADLSNPTKPLQLYRQWTDRIMEEFFRQGDRERERGMEISPMCDKHNASVEKSQVGFIDYIVHPLWETWADLVHPDAQDILDTLEDNREWYQSTIPQSPSPAPDDQEDGRQGQTEKFQFELTLEEDGESDTEKDSGSQVEEDTSCSDSKTLCTQDSESTEIPLDEQVEEEAVAEEESQPQTGVADDCCPDT | 2 |
